Data set [1] concerns T1, CC(C)=CCC/C(C)=C/CC/C(C)=C/CO[P@@](=O)(O)OP(=O)(O)O.
T1 construct: full length (326 residues), N-terminal His6 tag (pET28a, NheI-EcoRI), codon-optimised gene, E. coli BL21(DE3); ~40 kDa
Kind of data set: purified protein. Conditions: 65 °C, 10 mM MgCl2, TS buffer (MES/Tris/CAPS, 100 mM NaCl), 1 μM enzyme, FPP 1.2-92 μM, commercial ammonium salt. It counts as biochemical, Roseiflexus sp. RS-1.

Substrate in data set [2]: CC(C)=CCC/C(C)=C/CC/C(C)=C/CO[P@@](=O)(O)OP(=O)(O)O
Kind of data set: purified protein. It counts as biochemical, Roseiflexus castenholzii. The note with it: 65 °C, 10 mM MgCl2, TS buffer (MES/Tris/CAPS, 100 mM NaCl), 1 μM enzyme, FPP 1.2-92 μM, commercial ammonium salt.

For orientation: Km means the concentration of substrate that gives half-maximal velocity. One may read the kcat as the number of substrate molecules converted per active site and unit of time at saturation. For the molecule RoseRS_3509 (Roseiflexus sp. RS-1), in data set [1], the Km turned out to be 87 ± 31 µM and the kcat was determined as 0.95 ± 0.29 s⁻¹.

B1: Rcas_0622 (Roseiflexus castenholzii DSM 13941) (protein)
chain: MDQDYRARLVYPFSGAISPHADIVDQATLAWAAMFGLLTDSLRHKSRRLQYGLLAARAYPRADREMLQIAADWIAWLFFMDDQCDETGIGRDLQRMIALHERFLAILDGATPEAHDCALTYALADLRRRLALRAPDNWLRRFSEHVRLYFTANRWETVNRQRGATPNVATYCAARLFSGAVYACFDLIELAEQIELPFYARHHSIVQQLEQAANNIICWCNDVLSYPKEMQHGDRHNLVLVIQGEHQCSLPEAIDRALDLHAREVATFVRKRTCVPYFDAAVNTALEKYVTGLQFWICANRDWSLTATRYAPTHKSQEMVMAVAQQ
notes: full length, N-terminal His6 tag (pET28a, NheI-EcoRI), codon-optimised gene, E. coli BL21(DE3); ~40 kDa
For the molecule B1, in data set [2], the Km is 5.9 ± 2.0 µM and the turnover number (kcat) stood at 0.09 ± 0.008 s⁻¹.

For the origin of these results see PMC6849719, “Characterization of the first naturally thermostable terpene synthases and development of strategies to improve thermostability in this family of enzymes” (The Febs Journal, 2017).
